For one molecule, Kd, OD450 nm and percentage of bound virus results are on record in patent US20040071710A1.

Broadly, the Kd is the equilibrium constant for the complex coming apart.

In experiment [1] the target is E2 BEVS, recombinant HCV genotype 1b E2 protein produced in insect cells using Baculovirus (hepatitis C virus genotype 1b). In words: BIAcore 2000 (SPR). A general note: In SPR one partner is held on a chip, and binding of the other changes the refractive index at the surface.
Experiment [2] has as its target E2 CHO, recombinant HCV genotype 1b E2 protein produced in mammalian CHO cells (hepatitis C virus genotype 1b). Briefly: BIAcore 2000 (SPR).
The target of experiment [3] is E2 BEVS, recombinant HCV genotype 1b E2 protein produced in insect cells using Baculovirus (hepatitis C virus genotype 1b). In words: ELISA, E2-BEVS coated at 2 µg/ml, antibody at 1 µg/ml.
The target is the same in experiment [4]. Briefly: ELISA, E2-BEVS coated at 2 µg/ml, antibody at 0.5 µg/ml. (An ELISA detects its analyte on a solid surface through an enzyme-linked reagent.)
For experiment [5] the target is unchanged. In words: ELISA, E2-BEVS coated at 2 µg/ml, antibody at 0.25 µg/ml.
For experiment [6] the target is unchanged. In words: ELISA, E2-BEVS coated at 2 µg/ml, antibody at 0.125 µg/ml.
Experiment [7] has the same target. In words: ELISA, E2-BEVS coated at 2 µg/ml, antibody at 0.0078 µg/ml.
For experiment [8] the target is unchanged. Briefly: ELISA, E2-BEVS coated at 2 µg/ml, antibody at 0.0156 µg/ml.
The target is the same in experiment [9]. In words: ELISA, E2-BEVS coated at 2 µg/ml, antibody at 0.0625 µg/ml.
The target is the same in experiment [10]. Briefly: ELISA, E2-BEVS coated at 2 µg/ml, antibody at 0.03125 µg/ml.
Experiment [11] deals with HCV particles from sera of HCV infected patients (hepatitis C virus genotype 1b and 1a/1b). Briefly: immuno magnetic separation of virus from patient serum, RT-PCR detection.

Sequence of E2 CHO, recombinant HCV genotype 1b E2 protein produced in mammalian CHO cells (hepatitis C virus genotype 1b) (P26664 384-714): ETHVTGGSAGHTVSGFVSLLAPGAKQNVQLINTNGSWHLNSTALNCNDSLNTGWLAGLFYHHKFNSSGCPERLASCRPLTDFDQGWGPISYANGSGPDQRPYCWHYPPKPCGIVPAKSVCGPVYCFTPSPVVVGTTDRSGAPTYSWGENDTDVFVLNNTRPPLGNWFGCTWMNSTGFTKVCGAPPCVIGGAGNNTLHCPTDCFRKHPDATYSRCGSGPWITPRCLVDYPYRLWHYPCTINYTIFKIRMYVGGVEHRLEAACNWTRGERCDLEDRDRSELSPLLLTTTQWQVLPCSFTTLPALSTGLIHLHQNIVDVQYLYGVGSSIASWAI

B1: HCV-AB 68 (antibody, V domains shown)
VH: QVQLVESGGGVVQPGRSLRLSCATSGFPFSSYGMHWVRQAPGKGLEWVAVISYDGSNEHSIDSVKGRFTISRDNSKNRLYLQMKSLRAEDMAVYFCVRGAHRSSWSGKRFDYWGQGTLVTVSS
VL: DIQMTQSPSTLSASIGDRVTITCRASLNILTWLAWYQQKPGKAPKLLIYEASSLESGVPSRFSGSGSGTQFTLTISSLQPDDFATYYCQQSNTPWTFGQGTKVEIKR
Take B1: the Kd in experiment [1] was 1.7 nM; in experiment [2] it was 0.014 nM. The OD450 nm amounted to 0.439 OD450 nm in experiment [3]; 0.362 OD450 nm in [4]; 0.305 OD450 nm in [5]; 0.267 OD450 nm in experiment [6]; 0.065 OD450 nm in experiment [7]; 0.12 OD450 nm in [8]. For the same molecule, the OD450 nm in experiment [9] was 0.204 OD450 nm; in experiment [10], 0.171 OD450 nm. In [11], the percentage of bound virus worked out at 50%.
